The labels stand for the following.
B1: human platelet phosphofructokinase-1 with the cancer-associated mutation D564N (PFKP-D564N), recombinant (enzyme, UniProt Q01813-1 1-784, looked up)
chain: MDADDSRAPKGSLRKFLEHLSGAGKAIGVLTSGGDAQGMNAAVRAVVRMGIYVGAKVYFIYEGYQGMVDGGSNIAEADWESVSSILQVGGTIIGSARCQAFRTREGRLKAACNLLQRGITNLCVIGGDGSLTGANLFRKEWSGLLEELARNGQIDKEAVQKYAYLNVVGMVGSIDNDFCGTDMTIGTDSALHRIIEVVDAIMTTAQSHQRTFVLEVMGRHCGYLALVSALACGADWVFLPESPPEEGWEEQMCVKLSENRARKKRLNIIIVAEGAIDTQNKPITSEKIKELVVTQLGYDTRVTILGHVQRGGTPSAFDRILASRMGVEAVIALLEATPDTPACVVSLNGNHAVRLPLMECVQMTQDVQKAMDERRFQDAVRLRGRSFAGNLNTYKRLAIKLPDDQIPKTNCNVAVINVGAPAAGMNAAVRSAVRVGIADGHRMLAIYDGFDGFAKGQIKEIGWTDVGGWTGQGGSILGTKRVLPGKYLEEIATQMRTHSINALLIIGGFEAYLGLLELSAAREKHEEFCVPMVMVPATVSNNVPGSDFSIGADTALNTITDTCNRIKQSASGTKRRVFIIETMGGYCGYLANMGGLAAGADAAYIFEEPFDIRDLQSNVEHLTEKMKTTIQRGLVLRNESCSENYTTDFIYQLYSEEGKGVFDCRKNVLGHMQQGGAPSPFDRNFGTKISARAMEWITAKLKEARGRGKKFTTDDSICVLGISKRNVIFQPVAELKKQTDFEHRIPKEQWWLKLRPLMKILAKYKASYDVSDSGQLEHVQPWSV
B2: human liver phosphofructokinase-1 (PFKL), wild type, recombinant (enzyme)
chain: MAAVDLEKLRASGAGKAIGVLTSGGDAQGMNAAVRAVTRMGIYVGAKVFLIYEGYEGLVEGGENIKQANWLSVSNIIQLGGTIIGSARCKAFTTREGRRAAAYNLVQHGITNLCVIGGDGSLTGANIFRSEWGSLLEELVAEGKISETTARTYSHLNIAGLVGSIDNDFCGTDMTIGTDSALHRIMEVIDAITTTAQSHQRTFVLEVMGRHCGYLALVSALASGADWLFIPEAPPEDGWENFMCERLGETRSRGSRLNIIIIAEGAIDRNGKPISSSYVKDLVVQRLGFDTRVTVLGHVQRGGTPSAFDRILSSKMGMEAVMALLEATPDTPACVVTLSGNQSVRLPLMECVQMTKEVQKAMDDKRFDEATQLRGGSFENNWNIYKLLAHQKPPKEKSNFSLAILNVGAPAAGMNAAVRSAVRTGISHGHTVYVVHDGFEGLAKGQVQEVGWHDVAGWLGRGGSMLGTKRTLPKGQLESIVENIRIYGIHALLVVGGFEAYEGVLQLVEARGRYEELCIVMCVIPATISNNVPGTDFSLGSDTAVNAAMESCDRIKQSASGTKRRVFIVETMGGYCGYLATVTGIAVGADAAYVFEDPFNIHDLKVNVEHMTEKMKTDIQRGLVLRNEKCHDYYTTEFLYNLYSSEGKGVFDCRTNVLGHLQQGGAPTPFDRNYGTKLGVKAMLWLSEKLREVYRKGRVFANAPDSACVIGLKKKAVAFSPVTELKKDTDFEHRMPREQWWLSLRLMLKMLAQYRISMAAYVSGELEHVTRRTLSMDKGF
B3: human liver phosphofructokinase-1 with the cancer-associated mutation D553N (PFKL-D553N), recombinant (enzyme)
chain: B2 chain with D553N

Changes are numbered by the printed parent chain. Names and notes keep the numbering of the source. Values joined by “and” are separate entries in the source; they are usually repeats but may differ in a detail not shown here. Identical values can stand only once.

This data set deals with the molecule itself. Kind of data set: native gel or EMSA. (In general: In EMSA bound probe runs differently from free probe, usually more slowly.)
By stoichiometry N is commonly meant a count of units in the complex or per binding partner. As for B1, the “stoichiometry N” value was 4.
In the case of B2 it was 4 and > 4; in that of B3, 4.

Values taken from paper PMC10586780 (Biochemical Journal, 2023).
